Data as given in US20220031857A1 (OSSIANIX, published 2022).
Values joined by “and” are separate entries in the source; they are usually repeats but may differ in a detail not shown here. Equal entries are not always repeated. Blank lines part the entries; values can stand above or below the binder they belong to.

What was measured:
[1] = target: T1, recombinant mouse TfR1 (transferrin receptor 1) (mouse, UniProt Q62351 89-763); assay: ELISA, plate coated with 1 µg/ml recombinant mouse TfR1, purified VNAR-Fc titrated, 4-parameter fit
T1 construct: Bought recombinant His-tagged protein; also called mTfR1
T1 sequence (Q62351 89-763 limits assumed): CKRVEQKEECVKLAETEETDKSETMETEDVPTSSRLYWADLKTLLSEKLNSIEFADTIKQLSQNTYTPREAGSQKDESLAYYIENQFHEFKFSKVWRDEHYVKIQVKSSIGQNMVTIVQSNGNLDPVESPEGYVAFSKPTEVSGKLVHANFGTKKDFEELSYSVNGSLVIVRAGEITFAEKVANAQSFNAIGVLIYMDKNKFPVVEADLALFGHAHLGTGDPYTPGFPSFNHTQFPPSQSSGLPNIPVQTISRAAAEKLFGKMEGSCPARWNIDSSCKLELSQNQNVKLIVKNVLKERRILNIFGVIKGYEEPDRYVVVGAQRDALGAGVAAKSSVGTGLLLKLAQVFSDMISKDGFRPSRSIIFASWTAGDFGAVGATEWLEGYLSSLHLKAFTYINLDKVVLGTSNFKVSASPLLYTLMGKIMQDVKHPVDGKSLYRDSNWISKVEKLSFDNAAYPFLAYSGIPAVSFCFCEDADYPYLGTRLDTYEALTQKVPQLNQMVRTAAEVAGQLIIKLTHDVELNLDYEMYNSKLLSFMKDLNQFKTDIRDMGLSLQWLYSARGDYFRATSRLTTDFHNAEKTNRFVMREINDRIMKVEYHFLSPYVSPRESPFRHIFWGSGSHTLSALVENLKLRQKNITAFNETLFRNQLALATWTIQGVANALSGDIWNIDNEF
Procedure: (§1) It was previously reported that affinity might play a crucial role in TfR1 mediated brain penetration. […] Affinity estimation and unspecific binding was initially assessed using ELISA for human and mouse TfR1.
(§2) The next day the plates were blocked with […] with 0.1% Tween20 (PBST) for 1 hour at room temperature. Transfected cells were spun down at 2000 rpm for 10 minutes and the collected supernatant was mixed with milk in PBST to a final 2.5% concentration and incubated for 30 minutes. 100 μl of blocked supernatant was transferred into coated plates and incubated for 1 hour. […] The plates were washed and developed with TMB detection solution before stopping the reaction with 1% HCl. Absorbance was measured at 450 nm. A VNAR-Fc at know concentration was used for standard curve to calculate VNAR-Fc expression level.

[2] = target: T2, recombinant human TfR1 (transferrin receptor 1) (human, UniProt P02786 89-760); assay: ELISA, plate coated with 1 µg/ml recombinant human TfR1, purified VNAR-Fc titrated, 4-parameter fit
T2 construct: Bought recombinant His-tagged protein; also called hTfR1
T2 sequence (P02786 89-760 limits assumed): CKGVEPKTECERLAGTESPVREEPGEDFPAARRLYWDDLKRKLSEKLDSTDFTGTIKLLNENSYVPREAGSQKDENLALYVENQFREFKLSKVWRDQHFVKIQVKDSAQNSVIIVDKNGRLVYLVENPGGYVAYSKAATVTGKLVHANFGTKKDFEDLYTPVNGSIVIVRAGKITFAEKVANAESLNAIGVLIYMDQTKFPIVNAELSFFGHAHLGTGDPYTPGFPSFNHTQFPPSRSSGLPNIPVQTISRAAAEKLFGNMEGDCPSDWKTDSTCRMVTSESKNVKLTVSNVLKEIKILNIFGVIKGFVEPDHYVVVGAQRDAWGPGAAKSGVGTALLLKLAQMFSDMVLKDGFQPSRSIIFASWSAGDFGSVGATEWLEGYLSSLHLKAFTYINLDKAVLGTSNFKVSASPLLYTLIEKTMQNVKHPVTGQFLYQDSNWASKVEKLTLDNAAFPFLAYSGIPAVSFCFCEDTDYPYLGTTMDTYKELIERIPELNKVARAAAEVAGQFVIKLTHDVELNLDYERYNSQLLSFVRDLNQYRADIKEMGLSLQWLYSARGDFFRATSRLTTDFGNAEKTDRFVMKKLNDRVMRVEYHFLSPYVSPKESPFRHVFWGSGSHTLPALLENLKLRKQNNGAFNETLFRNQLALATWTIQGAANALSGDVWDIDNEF
Procedure: as §1, §2

[3] = target: T3, recombinant mouse TfR2 (mouse, UniProt Q9JKX3 103-798, limits assumed); assay: ELISA with Expi293 culture medium used directly, coated mouse TfR2, anti-Fc detection
T3 construct: Negative control protein
T3 sequence (looked up): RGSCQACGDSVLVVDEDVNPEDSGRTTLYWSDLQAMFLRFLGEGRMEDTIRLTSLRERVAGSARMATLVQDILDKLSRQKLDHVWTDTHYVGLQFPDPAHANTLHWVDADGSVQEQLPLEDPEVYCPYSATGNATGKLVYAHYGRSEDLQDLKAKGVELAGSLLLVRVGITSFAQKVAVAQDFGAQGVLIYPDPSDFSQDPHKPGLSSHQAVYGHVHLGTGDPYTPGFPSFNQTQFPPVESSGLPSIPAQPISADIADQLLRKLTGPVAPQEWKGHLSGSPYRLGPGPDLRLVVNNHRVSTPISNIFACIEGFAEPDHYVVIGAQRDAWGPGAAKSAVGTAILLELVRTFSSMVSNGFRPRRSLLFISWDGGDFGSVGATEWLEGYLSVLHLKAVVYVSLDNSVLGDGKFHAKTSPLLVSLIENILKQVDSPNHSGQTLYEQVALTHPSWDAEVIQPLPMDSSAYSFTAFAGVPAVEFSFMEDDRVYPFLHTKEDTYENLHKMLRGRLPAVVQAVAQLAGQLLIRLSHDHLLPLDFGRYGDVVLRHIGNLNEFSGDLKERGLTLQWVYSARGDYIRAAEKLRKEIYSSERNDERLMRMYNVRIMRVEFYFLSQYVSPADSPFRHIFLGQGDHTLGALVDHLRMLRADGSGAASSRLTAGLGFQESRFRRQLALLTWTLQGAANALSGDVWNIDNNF
Procedure: (§3) FIG. 6. […] The VNAR-Fc fusion proteins were transiently expressed using Expi293 expression system. VNAR-Fc constructs contained signal peptide sequence in order to be secreted. Cell growth media was used directly in ELISA. HSA and mouse TfR2 were used as negative controls for unspecific binding. A clone in position 52 represents untransfected cells. Total Fc concentration was measured with capture and detection anti-Fc antibody pair using irrelevant VNAR-Fc at known concentration for standard curve.
as §2

[4] = target: T4, human serum albumin (human, UniProt P02768 25-609); assay: ELISA with Expi293 culture medium used directly, coated HSA, anti-Fc detection
T4 construct: Negative control protein; also called HSA
T4 sequence (P02768 25-609 limits assumed): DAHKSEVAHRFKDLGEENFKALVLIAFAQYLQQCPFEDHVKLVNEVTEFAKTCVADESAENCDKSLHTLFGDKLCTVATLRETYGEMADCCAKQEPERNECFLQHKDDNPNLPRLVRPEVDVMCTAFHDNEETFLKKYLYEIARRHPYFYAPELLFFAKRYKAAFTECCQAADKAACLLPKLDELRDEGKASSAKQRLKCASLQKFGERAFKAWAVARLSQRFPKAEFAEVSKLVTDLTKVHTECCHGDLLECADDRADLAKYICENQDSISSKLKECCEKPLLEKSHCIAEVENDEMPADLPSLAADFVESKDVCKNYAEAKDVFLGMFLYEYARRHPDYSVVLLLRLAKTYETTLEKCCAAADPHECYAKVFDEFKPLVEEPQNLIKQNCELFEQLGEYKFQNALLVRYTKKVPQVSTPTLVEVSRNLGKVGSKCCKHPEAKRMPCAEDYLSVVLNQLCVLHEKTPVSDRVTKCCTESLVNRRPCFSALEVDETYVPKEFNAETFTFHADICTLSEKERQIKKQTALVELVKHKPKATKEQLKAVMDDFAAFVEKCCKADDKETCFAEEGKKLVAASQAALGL
Procedure: as §3, §2

[5] = target: T2, recombinant human TfR1 (transferrin …); assay: Octet, human TfR1 immobilised; 8D3 as first antibody, which does not bind human TfR1 (grey column); white cell
Procedure: FIGS. 15A and 15B. Epitope binning by cross-competition binding to mouse and human TfR1. VNAR-Fc fusion proteins were tested for cross-blocking in a pairwise manner against mouse (A) and human TfR1 (B) immobilised on biosensors using the Octet platform.
A series of biochemical parameters was examined to further characterize the panel VNAR to TfR1 obtained from in vivo phage display selections. Epitope binning experiments were performed to assess whether the VNARs could compete against each other for binding to either the mouse or human TfR1. […] Because each VNAR binds via a unique CDR3 region with a different structural topography, steric interactions could be important efficient transcytosis.

[6] = target: T1, recombinant mouse TfR1 (transferrin …); assay: SPR (Biacore), single-cycle kinetics, His-tagged TfR1 captured, VNAR-Fc injected; SPR single cycle kinetics, immobilised mouse TfR1, VNAR-Fc up to 250 nM
Procedure: (§4) Binding kinetics of VNAR-Fcs was determined by surface plasmon resonance (Biacore T200, GE Healthcare). CM5 chips were coated with anti-His antibodies (His Capture Kit, GE Healthcare) as recommended by the manufacturer and human or mouse his-tagged TfR1 (SinoBiological) at 10 ug/mL in HBS-EP+ (GE Healthcare) was captured at flow rate 10 ul/min (contact time 120 s). […] A flow cell without TfR1 captured served as a reference. Sensorgrams were fitted and kinetic constants were determined using Biacore T200 Evaluation software. Chips were regenerated in 10 mM Glycine-HCl, pH 1.5 (contact time: 120 s at flow rate 30 ul/min).

[7] = target: T2, recombinant human TfR1 (transferrin …); assay: SPR (Biacore), single-cycle kinetics, His-tagged TfR1 captured, VNAR-Fc injected
Procedure: as §4

[8] = target: T1, recombinant mouse TfR1 (transferrin …); assay: Octet, mouse TfR1 on anti-His biosensors, analyte 10 nM, PBS pH 7.2
Procedure: (§5) Binding kinetics of selected VNAR-Fcs to mouse TfR1 at pH 7.2 and pH 6.0 was measured by […] (Octet). Mouse TfR1 (10 μg/ml) was immobilised on anti-His biosensors and the binding kinetics of VNAR-Fcs and 8D3 antibody (10 nM) was measured at pH 7.2 and pH 6.0 in phosphate buffered saline (PBS) (Table 8).

[9] = target: T1, recombinant mouse TfR1 (transferrin …); assay: Octet, mouse TfR1 on anti-His biosensors, analyte 10 nM, PBS pH 6.0
Procedure: as §5

[10] = target: T1, recombinant mouse TfR1 (transferrin …); assay: SPR (Biacore), single-cycle kinetics, His-tagged TfR1 captured, VNAR-Fc injected
Procedure: as §4

[11] = target: T1, recombinant mouse TfR1 (transferrin …); assay: ELISA on mouse TfR1
[12] = target: T1, recombinant mouse TfR1 (transferrin …); assay: ELISA, plate coated with 1 µg/ml recombinant mouse TfR1, purified VNAR-Fc titrated, 4-parameter fit; Clone 2 stands twice in the legend

B1: Clone 7 VNAR-Fc fusion protein (Fc fusion)
chain: ARVDQTPQTITKETGESLTINCVLRDSNCELSSTYWYRKKSGSTNEARISKGGRYVETVNSGSKSFSLKINDLTVEDSGTYRCNVLTTDSYDLGDVYGDGTVVTVNA
notes: Bivalent VNAR-Fc; not shown: glycine/serine linker (GxSx)n extending the hinge; human IgG1 Fc (hinge, CH2, CH3) of pFUSE-hIgG1e3-Fc2; G236 also deleted
EC50 [1]: 5370 nM
EC50 [2]: 463 nM
binding result [3]: no binding
binding result [4]: no binding

B3: Clone 10 VNAR-Fc fusion protein (Fc fusion)
chain: ARVDQTPQTITKETGESLTINCVLRDSNCALSSTYWYRKKSGSTNEENISKGGRYVETVNSGSKSFSLRINDLTVEDSGTYRCNVVQYPSYNNYFWCDVYGDGTAVTVNA
notes: Bivalent VNAR-Fc; also called clone 10-Fc; Clone 10-hFc; not shown: glycine/serine linker (GxSx)n extending the hinge; human IgG1 Fc (hinge, CH2, CH3) of pFUSE-hIgG1e3-Fc2; G236 also deleted
Octet signal as second antibody after 8D3 [5]: 0.546
EC50 [1]: 11.9 nM
Kd [8]: 0.0703 nM
koff [8]: 4.43e-05 s⁻¹
kon [8]: 630000 M⁻¹ s⁻¹
Kd [9]: 0.419 nM
koff [9]: 0.0003 s⁻¹
kon [9]: 715000 M⁻¹ s⁻¹
Kd [7]: 0.523 nM
koff [7]: 0.00016 s⁻¹
kon [7]: 306000 M⁻¹ s⁻¹
Kd [10]: 0.408 nM
koff [10]: 0.000116 s⁻¹
kon [10]: 285000 M⁻¹ s⁻¹
EC50 [2]: 2.45 nM
EC50 [11]: 2.96 nM
binding result [3]: no binding
binding result [4]: no binding

B5: Clone 1 VNAR-Fc fusion protein (Fc fusion)
chain: ARVDQTPQTITKETGESLTINCVLRDNNCALSTTYWYRKKSGSTNEENISKGGRYVETVNSGSKSFSLKINDLTVEDSGTYRCNVRDVQACGNDWVWLDVYGGGTVVTVNA
notes: Bivalent VNAR-Fc; also called clone 1-Fc; not shown: glycine/serine linker (GxSx)n extending the hinge; human IgG1 Fc (hinge, CH2, CH3) of pFUSE-hIgG1e3-Fc2; G236 also deleted
Octet signal as second antibody after 8D3 [5]: 0.329
EC50 [1]: 15.9 nM
Kd [8]: 0.363 nM
koff [8]: 0.000292 s⁻¹
kon [8]: 804000 M⁻¹ s⁻¹
Kd [9]: 0.541 nM
koff [9]: 0.00036 s⁻¹
kon [9]: 666000 M⁻¹ s⁻¹
Kd [7]: 1.87 nM
koff [7]: 0.000123 s⁻¹
kon [7]: 66000 M⁻¹ s⁻¹
Kd [10]: 3.34 nM
koff [10]: 0.00025 s⁻¹
kon [10]: 74700 M⁻¹ s⁻¹
EC50 [2]: 4.67 nM
EC50 [11]: 4.83 nM
binding result [3]: no binding
binding result [4]: no binding

B7: Clone 2 VNAR-Fc fusion protein (Fc fusion)
chain: ARVDQTPQTITKETGESLTINCVLRDNNCALSTTYWYRKKSGSTNEENISKGGRYVETVNSGSKSFSLKINDLTVEDSGTYRCNVFGVDNGWWCDVYGGGTVVTVNA
notes: as for B1
Octet signal as second antibody after 8D3 [5]: 0.454
EC50 [12]: 433 nM and 761 nM
Kd [7]: 2.34 nM
koff [7]: 0.000445 s⁻¹
kon [7]: 190000 M⁻¹ s⁻¹
Kd [10]: 2.56 nM
koff [10]: 0.000501 s⁻¹
kon [10]: 195000 M⁻¹ s⁻¹
binding result [3]: no binding
binding result [4]: no binding

B8: Clone 12 VNAR-Fc fusion protein (Fc fusion)
chain: ARVDQTPQTITKETGESLTINCVLRDSICALSSTHWYRKKSGSTNEESISKGGRYVETVNSGSKSFSLRINDLTVEDSGTYRCKVVRSGVGPCWADVYGGGTAVTVNA
notes: as for B1
Octet signal as second antibody after 8D3 [5]: 0.403
EC50 [1]: 1560 nM
EC50 [2]: 151 nM
binding result [3]: no binding
binding result [4]: no binding

More lines, now with the values ahead:

Octet signal as second antibody after 8D3 [5]: 0.609
EC50 [1]: 1530 nM
Kd [6]: 18.3 nM
koff [6]: 0.00294 s⁻¹
kon [6]: 161000 M⁻¹ s⁻¹
Kd [7]: 7.22 nM
koff [7]: 0.000684 s⁻¹
kon [7]: 94700 M⁻¹ s⁻¹
EC50 [2]: 257 nM
binding result [3]: no binding
binding result [4]: no binding
B2: Clone 39 VNAR-Fc fusion protein (Fc fusion)
chain: ARVDQTPQTITKETGESLTINCVLRDSNCALSSTLWYRTKSGSRNEESISKGGRYVETVNSGSKSFSLKINDLTVEDSGTYRCNVQGMVYDGSSFWWCDVYGDSTAVTVNA
notes: as for B1

EC50 [11]: 8.33 nM
B4: IDUA-clone 10-hFc (Fc fusion)
chain (part 1 of 2): B3 chain
chain (part 2 of 2): APHLVHVDAARALWPLRRFWRSTGFCPPLPHSQADQYVLSWDQQLNLAYVGAVPHRGIKQVRTHWLLELVTTRGSTGRGLSYNFTHLDGYLDLLRENQLLPGFELMGSASGHFTDFEDKQQVFEWKDLVSSLARRYIGRYGLAHVSKWNFETWNEPDHHDFDNVSMTMQGFLNYYDACSEGLRAASPALRLGGPGDSFHTPPRSPLSWGLLRHCHDGTNFFTGEAGVRLDYISLHRKGARSSISILEQEKVVAQQIRQLFPKFADTPIYNDEADPLVGWSLPQPWRADVTYAAMVVKVIAQHQNLLLANTTSAFPYALLSNDNAFLSYHPHPFAQRTLTARFQVNNTRPPHVQLLRKPVLTAMGLLALLDEEQLWAEVSQAGTVLDSNHTVGVLASAHRPQGPADAWRAAVLIYASDDTRAHPNRSVAVTLRLRGVPPGPGLVYVTRYLDNGLCSPDGEWRRLGRPVFPTAEQFRRMRAAEDPVAAAPRPLPAGGRLTLRPALRLPSLLLVHVCARPEKPPGQVTRLRALPLTQGQLVLVWSDEHVGSKCLWTYEIQFSQDGKAYTPVSRKPSTFNLFVFSPDTGAVSGSYRVRALDYWARPGPFSDPVPYLEVPVPRGPPSPGNP
notes: Order of the parts follows the text's 'VNAR-Fc-IDUA'; Made in CHO cells; also called clone 10 VNAR-Fc-IDUA fusion protein; not shown: human Fc fragment (hFc)

EC50 [11]: 7.24 nM
B6: IDUA-clone 1-hFc (Fc fusion)
chain (part 1 of 2): B5 chain
chain (part 2 of 2): B4 chain (part 2 of 2)
notes: Order of the parts follows the text's 'VNAR-Fc-IDUA'; Made in CHO cells; also called clone 1 VNAR-Fc-IDUA fusion protein; not shown: human Fc fragment (hFc)

EC50 [1]: 7180 nM
EC50 [2]: 3110 nM
B9: Clone 16 VNAR-Fc fusion protein (Fc fusion)
chain: ARVDQTPQTITKETGESLTINCVLRDSNCALPSTYWYRKKSGSTNEESISKGGRYVETVNSGSKSFSLRINDLTVKDSGTYRCKVDLPRYLCFSQYGRWYDVYGDGTAVTVNA
notes: as for B1
